Our source for the Km and kcat values is paper PMC7886051, “Redesigning the Molecular Choreography to Prevent Hydroxylation in Germacradien-11-ol Synthase Catalysis” (ACS Catalysis, 2021).

Substrate in the data set: CC(C)=CCC/C(C)=C/CC/C(C)=C/CO[P@@](=O)(O)OP(=O)(O)O
The data set is described as follows: steady-state kinetics of purified enzyme (details in supplement). It is filed as biochemical, Streptomyces coelicolor. The note with it: Mg2+-dependent enzyme; assay conditions in supplement. An excerpt: steady-state kinetics of purified enzyme (details in supplement) on Gd11olS (germacradien-11-ol synthase; N-terminal domain of geosmin synthase)

Residue numbers refer to the chain shown, from its start. Names and notes keep the numbering of the source.

B1: Gd11olS (germacradien-11-ol synthase; N-terminal domain of geosmin synthase) (Streptomyces coelicolor A3(2); V187A) (protein)
chain: MTQQPFQLPHFYLPHPARLNPHLDEARAHSTTWAREMGMLEGSGVWEQSDLEAHDYGLLCAYTHPDCDGPALSLITDWYVWVFFFDDHFLEKYKRSQDRLAGKAHLDRLPLFMPLDDAAGMPEPRNPVEAGLADLWTRTVPAMSADWRRRFAVATEHLLNESMWELSNINEGRVANPVEYIEMRRKAGGAPWSAGLVEYATAEVPAAVAGTRPLRVLMETFSDAVHLRNDLFSYQREVEDEGELSNGVLVLETFFGCTTQEAADLVNDVLTSRLHQFEHTAFTEVPAVALEKGLTPLEVAAVGAYTKGLQDWQSGGHEWHMRSSRYMNKGERPLAGWQALTGPGTSAADVGALLADAVAQRARSYT
notes: N-terminal domain, residues 1-366 of geosmin synthase; codon-optimized synthetic gene in pET28a, expressed in E. coli, purified to homogeneity; tag details in supplement
What is called Km is the concentration of substrate that gives half-maximal velocity. Usually kcat stands for the maximal rate divided by the concentration of active sites. In the case of B1, the Km came to 0.3 ± 0.06 µM and the catalytic constant (kcat) was 0.000194 ± 1e-07 s⁻¹.

B2: Gd11olS (germacradien-11-ol synthase; N-terminal domain of geosmin synthase) (Streptomyces coelicolor A3(2); Q313A) (protein)
chain: B1 chain with A187V, Q313A
notes: as for B1
On to B2, for which the Km worked out at 1.10 ± 0.14 µM and the turnover number (kcat) came out at 6.9e-05 ± 2e-07 s⁻¹.

B3: Gd11olS (germacradien-11-ol synthase; N-terminal domain of geosmin synthase) (Streptomyces coelicolor A3(2); Q313N) (protein)
chain: B1 chain with A187V, Q313N
notes: as for B1
With B3, the Km amounted to 0.5 ± 0.07 µM and the catalytic constant (kcat) turned out to be 5.02e-05 ± 1e-07 s⁻¹.

B4: Gd11olS (germacradien-11-ol synthase; N-terminal domain of geosmin synthase) (Streptomyces coelicolor A3(2); G188S) (protein)
chain: B1 chain with A187V, G188S
notes: as for B1
Consider B4, for which the Michaelis-Menten constant (Km) was determined as 5.7 ± 0.9 µM and the catalytic constant (kcat) worked out at 4.08e-05 ± 2e-06 s⁻¹.

B5: Gd11olS (germacradien-11-ol synthase; N-terminal domain of geosmin synthase) (Streptomyces coelicolor A3(2); W312F) (protein)
chain: B1 chain with A187V, W312F
notes: as for B1
Regarding B5, the Km stood at 0.9 ± 0.09 µM and the kcat came out at 0.000255 ± 6e-07 s⁻¹.

B6: Gd11olS (germacradien-11-ol synthase; N-terminal domain of geosmin synthase) (Streptomyces coelicolor A3(2); R228V) (protein)
chain: B1 chain with A187V, R228V
notes: as for B1
Regarding B6, the Michaelis constant (Km) stood at 0.8 ± 0.10 µM and the kcat was 0.0001814 ± 4e-07 s⁻¹.

B7: Gd11olS (germacradien-11-ol synthase; N-terminal domain of geosmin synthase) (Streptomyces coelicolor A3(2)) (protein)
chain: B1 chain with A187V
notes: as for B1
On to B7, for which the Km is 0.5 ± 0.08 µM and the kcat was 0.000524 ± 2e-07 s⁻¹.

B8: Gd11olS (germacradien-11-ol synthase; N-terminal domain of geosmin synthase) (Streptomyces coelicolor A3(2); G188A) (protein)
chain: B1 chain with A187V, G188A
notes: as for B1
With B8, the Michaelis constant (Km) is 3.8 ± 1.5 µM and the kcat came out at 3.7e-05 ± 5e-06 s⁻¹.

B9: Gd11olS (germacradien-11-ol synthase; N-terminal domain of geosmin synthase) (Streptomyces coelicolor A3(2); W312A) (protein)
chain: B1 chain with A187V, W312A
notes: as for B1
Turning to B9, the Km came out at 0.4 ± 0.07 µM and the kcat was 4.02e-05 ± 1e-07 s⁻¹.

B10: Gd11olS (germacradien-11-ol synthase; N-terminal domain of geosmin synthase) (Streptomyces coelicolor A3(2); H320A) (protein)
chain: B1 chain with A187V, H320A
notes: as for B1
For B10, the Km is 1.12 ± 0.10 µM and the kcat stood at 3.8e-05 ± 1e-07 s⁻¹.

B11: Gd11olS (germacradien-11-ol synthase; N-terminal domain of geosmin synthase) (Streptomyces coelicolor A3(2); H320F) (protein)
chain: B1 chain with A187V, H320F
notes: as for B1
In the case of B11, the Km is 1.8 ± 0.5 µM and the kcat is 2.3e-05 ± 2e-07 s⁻¹.
